# Measurements as given in patent publication US20060229240A1 (GARDELL ET AL, published 2006).
# Positions of bridges follow the written chain, without caps; N, C: chain ends. Non-standard residues stand in square brackets, D forms with d. No end group written: not given here. hArg = N=C(N)NCCCC[C@H](N)C(=O)O; Aib = CC(C)(N)C(=O)O
# B1: PTH(1-34) ([Tyr^34]hPTH(1-34)amide) (peptide)
# peptide: SVSEIQLMHNLGKHLNSMERVEWLRKKLQDVHNY-NH2
# notes: Human PTH(1-34) analog with Tyr at 34; also called [Tyr^34]hPTH(1-34)NH2; PTH(1-34) scaffold peptide
# B2: [Ala^6,10]PTH(1-34) (peptide)
# peptide: SVSEIALMHALGKHLNSMERVEWLRKKLQDVHNY-NH2
# notes: Double Ala analog of [Tyr^34]hPTH(1-34)amide
# B3: [Ala^6]PTH(1-34) (peptide)
# peptide: SVSEIALMHNLGKHLNSMERVEWLRKKLQDVHNY-NH2
# notes: Gln6->Ala analog of [Tyr^34]hPTH(1-34)amide
# B4: [Lys^6, Glu^10]PTH(1-14) (peptide)
# peptide: AVAEIKLMHE[hArg]AKW-NH2
# modifications: N-terminus assumed
# SMILES: CC[C@H](C)[C@H](NC(=O)[C@H](CCC(=O)O)NC(=O)[C@H](C)NC(=O)[C@@H](NC(=O)[C@H](C)N)C(C)C)C(=O)N[C@@H](CCCCN)C(=O)N[C@@H](CC(C)C)C(=O)N[C@@H](CCSC)C(=O)N[C@@H](Cc1c[nH]cn1)C(=O)N[C@@H](CCC(=O)O)C(=O)N[C@@H](CCCCNC(=N)N)C(=O)N[C@@H](C)C(=O)N[C@@H](CCCCN)C(=O)N[C@@H](Cc1c[nH]c2ccccc12)C(N)=O
# B5: [(Lys^6, Glu^10)lac.]PTH(1-14) (peptide)
# peptide: AVAEIKLMHE[hArg]AKW-NH2
# modifications: lactam 6-10; N-terminus assumed
# SMILES: CC[C@H](C)[C@H](NC(=O)[C@H](CCC(=O)O)NC(=O)[C@H](C)NC(=O)[C@@H](NC(=O)[C@H](C)N)C(C)C)C(=O)N[C@H]1CCCCNC(=O)CC[C@@H](C(=O)N[C@@H](CCCCNC(=N)N)C(=O)N[C@@H](C)C(=O)N[C@@H](CCCCN)C(=O)N[C@@H](Cc2c[nH]c3ccccc23)C(N)=O)NC(=O)[C@H](Cc2c[nH]cn2)NC(=O)[C@H](CCSC)NC(=O)[C@H](CC(C)C)NC1=O
# B6: [Aib^1,3]PTH(1-14) (AibValAibGluIleGlnLeuMetHisGlnHarAlaLysTrp-amide) (peptide)
# peptide: [Aib]V[Aib]EIQLMHQ[hArg]AKW-NH2
# modifications: N-terminus assumed
# SMILES: CC[C@H](C)[C@H](NC(=O)[C@H](CCC(=O)O)NC(=O)C(C)(C)NC(=O)[C@@H](NC(=O)C(C)(C)N)C(C)C)C(=O)N[C@@H](CCC(N)=O)C(=O)N[C@@H](CC(C)C)C(=O)N[C@@H](CCSC)C(=O)N[C@@H](Cc1c[nH]cn1)C(=O)N[C@@H](CCC(N)=O)C(=O)N[C@@H](CCCCNC(=N)N)C(=O)N[C@@H](C)C(=O)N[C@@H](CCCCN)C(=O)N[C@@H](Cc1c[nH]c2ccccc12)C(N)=O
# Target: T1, PTH/PTHrP receptor (P1R), wild-type, full-length (human, UniProt Q03431 27-593)
# T1 sequence (looked up): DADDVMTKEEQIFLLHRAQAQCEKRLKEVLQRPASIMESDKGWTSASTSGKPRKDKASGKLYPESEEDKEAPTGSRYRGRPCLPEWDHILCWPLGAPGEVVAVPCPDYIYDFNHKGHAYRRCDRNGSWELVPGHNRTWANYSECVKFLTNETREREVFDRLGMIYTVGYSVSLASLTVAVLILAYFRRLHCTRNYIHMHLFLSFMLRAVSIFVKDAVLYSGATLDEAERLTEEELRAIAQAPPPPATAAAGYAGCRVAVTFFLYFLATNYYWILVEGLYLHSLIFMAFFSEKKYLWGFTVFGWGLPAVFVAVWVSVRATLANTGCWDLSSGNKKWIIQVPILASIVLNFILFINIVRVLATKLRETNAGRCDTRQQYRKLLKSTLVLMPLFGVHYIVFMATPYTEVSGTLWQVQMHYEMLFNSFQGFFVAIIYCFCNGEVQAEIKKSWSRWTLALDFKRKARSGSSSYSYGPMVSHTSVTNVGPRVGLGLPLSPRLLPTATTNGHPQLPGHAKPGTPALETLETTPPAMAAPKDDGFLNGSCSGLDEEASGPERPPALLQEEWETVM
# Test: cell-based or functional assay
Binder,cAMP EC50,cAMP Emax (%)
B1,1.9 µM,100%
B2,2.2 µM,107%
SVSEIQLMHALGKHLNSMERVEWLRKKLQDVHNY-NH2 [[Ala^10]PTH(1-34)],3 µM,106%
B3,4.9 µM,105%

# Target: T1, PTH/PTHrP receptor (P1R), wild-type, …
# Test: cell-based or functional assay
# Remark: another data set of the same source
Binder,cAMP EC50,cAMP Emax (%)
B1,0.27 µM,100%
B2,0.3 µM,121%
SVSEIQLMHALGKHLNSMERVEWLRKKLQDVHNY-NH2 [[Ala^10]PTH(1-34)],0.27 µM,96%
B3,0.17 µM,104%

# Target: T2, P1R-DelNt (truncated human P1R deleted for residues 24-181) (human, UniProt Q03431 182-593)
# T2 sequence (looked up): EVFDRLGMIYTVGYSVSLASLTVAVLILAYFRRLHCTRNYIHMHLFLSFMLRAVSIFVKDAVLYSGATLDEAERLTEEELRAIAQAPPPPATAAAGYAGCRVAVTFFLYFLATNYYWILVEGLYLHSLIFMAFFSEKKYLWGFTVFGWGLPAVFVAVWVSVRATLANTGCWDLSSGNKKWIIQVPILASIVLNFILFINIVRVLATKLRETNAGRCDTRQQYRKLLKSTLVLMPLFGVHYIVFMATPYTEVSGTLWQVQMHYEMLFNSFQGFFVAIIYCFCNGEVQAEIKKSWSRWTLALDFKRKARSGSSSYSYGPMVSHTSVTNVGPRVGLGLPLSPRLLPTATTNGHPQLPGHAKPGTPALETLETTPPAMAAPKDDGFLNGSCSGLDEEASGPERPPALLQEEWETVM
# Test: cell-based or functional assay
Binder,cAMP Emax (%),cAMP EC50
B1,44%,
B2,44%,19 µM
SVSEIQLMHALGKHLNSMERVEWLRKKLQDVHNY-NH2 [[Ala^10]PTH(1-34)],46%,14 µM
B3,4.5%,> 100 µM

# Target: T1, PTH/PTHrP receptor (P1R), wild-type, …
# Test: cell-based or functional assay
# Remark: another data set of the same source
Binder,cAMP EC50,cAMP Emax (%)
B4,130 µM,37%
B5,21 µM,59%

# Target: T1, PTH/PTHrP receptor (P1R), wild-type, …
# Test: cell-based or functional assay
# Remark: another data set of the same source
Binder,cAMP EC50,cAMP Emax (%)
AVAEIQLMHQR-NH2 [PTH(1-11) (AlaValAlaGluIleGlnLeuMetHisGlnArg-amide)],5 µM,100%
AVAEIQLMHAR-NH2 [[Ala^10]PTH(1-11)],11 µM,88%
"AVAEIALMHAR-NH2 [[Ala^6, Ala^10]PTH(1-11)]",160 µM,41%
AVAEIALMHQR-NH2 [[Ala^6]PTH(1-11)],330 µM,26%

# Target: T2, P1R-DelNt (truncated human P1R deleted …)
# Test: cell-based or functional assay
# Remark: another data set of the same source
Binder,cAMP EC50,cAMP Emax (%)
AVAEIQLMHQR-NH2 [PTH(1-11) (AlaValAlaGluIleGlnLeuMetHisGlnArg-amide)],14 µM,100%
AVAEIQLMHAR-NH2 [[Ala^10]PTH(1-11)],39 µM,79%
"AVAEIALMHAR-NH2 [[Ala^6, Ala^10]PTH(1-11)]",170 µM,42%
AVAEIALMHQR-NH2 [[Ala^6]PTH(1-11)],320 µM,14%
B6,0.0066 µM,100%

# Target: T1, PTH/PTHrP receptor (P1R), wild-type, …
# Test: cell-based or functional assay
# Remark: another data set of the same source
Binder,fold increase in cAMP formation,"cAMP potency relative to linear [Lys^6, Glu^10]PTH(1-14)"
AVAEIQLMHQR-NH2 [PTH(1-11) (AlaValAlaGluIleGlnLeuMetHisGlnArg-amide)],75 fold,
B5,,6 fold

# Target: T2, P1R-DelNt (truncated human P1R deleted …)
# Test: cell-based or functional assay
# Remark: another data set of the same source
Binder,fold increase in cAMP formation,fold increase in cAMP accumulation
AVAEIQLMHQR-NH2 [PTH(1-11) (AlaValAlaGluIleGlnLeuMetHisGlnArg-amide)],55 fold,
B6,,50 fold

# Target: T1, PTH/PTHrP receptor (P1R), wild-type, …
# Test: competition with 125I-[Ala3,12,Gln10,Har11,Trp14,Arg19,Tyr21]PTH(1-21)-amide tracer on HKRK-B28 cells expressing P1R
# Protocol: Competition Binding. Binding reactions were performed with […] cells or in COS-7 cells in 24-well plates. The cells were rinsed with 0.5 mL of binding buffer, and then treated successively with 100 μL binding buffer, 100 μL of binding buffer containing various amounts of unlabeled competitor ligand, and 100 μL of binding buffer containing ca. 100,000 cpm of ¹²⁵I-[M]PTH(1-21)(SEQ. ID. NO. 16) or ¹²⁵I-[Aib^{1,3},M]PTH(1-21)(SEQ. ID. NO. 17) (ca. 26 fmol; final volume=300 μL). Incubations were 4 to 6 h at 4° C., at which time near equilibrium conditions were attained. Cells were then placed on ice, the binding medium was removed, and the monolayer was rinsed three times with 0.5 mL of cold binding buffer. The cells were subsequently lysed with 0.5 mL 5N NaOH and counted for radioactivity. For each tracer and in each experiment, the non-specific binding was determined as the radioactivity that bound in the presence of the same unlabeled peptide at a concentration of 1 μM, and was ˜1% of total radioactivity added for each tracer. The maximum specific binding (B₀) was the total radioactivity bound in the absence of competing ligand, corrected for nonspecific binding, and for each tracer, ranged from 8% to 20% of the total radioactivity added. Nonlinear regression was used to calculate binding IC₅₀ values (see below). Scatchard transformations of homologous competition binding data derived from studies with 26 fmol of ¹²⁵I-[Aib^{1,3},M]PTH(1-21) (SEQ. ID. NO. 17) were employed for estimations of apparent equilibrium dissociation constant (kDapps) and total number of ligand binding sites (Bₘₐₓ), assuming a single class of binding sites and equal affinities of the iodinated and non iodinated ligand.
# The peptide PTH(1-34) ([Tyr³⁴]bPTH(1-34)NH₂) (SEQ. ID. NO. 10) and analogs containing substitutions at positions 6 and/or 10 in place of Gln and Asn, respectively, were evaluated in HKRK-B28 cells for the capacity to stimulate cAMP accumulation, and to inhibit the binding of ¹²⁵I-[Ala^{3,12}, Gln¹⁰, Har¹¹, Trp¹⁴,Arg¹⁹, Tyr²¹]PTH(1-21)-amide (SEQ. ID. NO. 30) tracer radioligand.
row,Binder,IC50
1,B1,6 µM
2,B2,3.9 µM
3,SVSEIQLMHALGKHLNSMERVEWLRKKLQDVHNY-NH2 [[Ala^10]PTH(1-34)],6.4 µM
4,B3,4.5 µM
